Data from article PMC6378967.

B1: angiotensinogen (AGT): N14Q (protein)
parent chain: MAPAGVSLRATILCLLAWAGLAAGDRVYIHPFHLVIHNESTCEQLAKANAGKPKDPTFIPAPIQAKTSPVDEKALQDQLVLVAAKLDTEDKLRAAMVGMLANFLGFRIYGMHSELWGVVHGATVLSPTAVFGTLASLYLGALDHTADRLQAILGVPWKDKNCTSRLDAHKVLSALQAVQGLLVAQGRADSQAQLLLSTVVGVFTAPGLHLKQPFVQGLALYTPVVLPRSLDFTELDVAAEKIDRFMQAVTGWKTGCSLMGASVDSTLAFNTYVHFQGKMKGFSLLAEPQEFWVDNSTSVSVPMLSGMGTFQHWSDIQDNFSVTQVPFTESACLLLIQPHYASDLDKVEGLTFQQNSLNWMKKLSPRTIHLTMPQLVLQGSYDLQDLLAQAELPAILHTELNLQKLSNDRIRVGEVLNSIFFELEADEREPTESTQQLNKPEVLEVTLNRPFLFAVYDQSATALHFLGRVANPLSTA
B2: angiotensinogen (AGT): N4 (protein)
parent chain: B1 parent chain

Test: steady-state kinetics, released Ang I immunoassay
Conditions: glycan lost; control: fully glycosylated WT AGT

Row | Protein | other: proteolytic processing, kcat_Km
1 | B1 | increases, 0.64 ± 0.03 vs 0.25 ± 0.01, 0.64 ± 0.03 (252%)
2 | B2 | increases, 0.65 ± 0.08 vs 0.25 ± 0.01, 0.65 ± 0.08 (255%)
